Primed or numbered codes have the meaning given here. Biotin′ = not defined here

Experiment [1] addresses T1, LRRC25(21-40) biotin peptide (human, not fully specified; N-terminal NH2; C-terminal GGK-Biotin; native Cys changed to Ser).
T1 peptide: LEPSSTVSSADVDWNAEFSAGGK
The experiment in a line: peptide ELISA. As for the experimental part:
(§1) To establish if functional chimera anti-LRRC25 antibodies recognize particular regions of LRRC25, ELISA experiments were performed using 10 plate-immobilized 16- to 20-mer overlapping LRRC25(ECD) biotin peptides (Table 7). Biotinylated human LRRC25-His served as a positive control. A typical ELISA was performed by coating overnight at 4° C., 3 ug/mL/25 ul per well of streptavidin (Jackson Immunoresearch, Cat. #016-030-084) in PBS in half-area high binding microtiter wells (Corning Cat. #3690). […] Biotin peptides or biotinylated human LRRC25-His protein were added in duplicate (2 ug/mL/25 ul per well) in assay buffer (blocking buffer containing 0.05% tween 20) and the plate incubated for 45 min at 37° C. The plate was washed as before, 20 nM anti-LRRC25 antibodies in assay buffer added in duplicate into appropriate wells, and the plate incubated as before. The plate was washed and HRP-conjugated secondary antibody in assay buffer added [25 ul per well; goat anti-human IgG (Jackson Immunoresearch, Cat. #715-035-150)], and incubated as before. Antibody bound to plate-immobilized peptide(s) or protein was determined at A450 nm using HRP substrate (3,3′,5,5′-tetramethylbenzidine (TMB); eBioscience; Cat. #00-4201-56); 100 μl/well).

Experiment [2] has as its target T2, LRRC25(36-55) biotin peptide (human, not fully specified; N-terminal NH2; C-terminal GGK-Biotin; native Cys changed to Ser).
T2 peptide: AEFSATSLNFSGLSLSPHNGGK
The experiment in a line: peptide ELISA. As for the experimental part:
as §1

Experiment [3] addresses T3, LRRC25(51-69) biotin peptide (human, not fully specified; N-terminal acetyl; C-terminal GGK-Biotin).
T3 peptide: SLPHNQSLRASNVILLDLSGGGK
The experiment in a line: peptide ELISA. As for the experimental part: as §1
On the technique in general: In an ELISA, binding on a coated surface is turned into a signal by an enzyme label.

Experiment [4] has as its target T4, LRRC25(66-85) biotin peptide (human, not fully specified; N-terminal acetyl; C-terminal GGK-Biotin).
T4 peptide: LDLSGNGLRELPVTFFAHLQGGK
The experiment in a line: peptide ELISA. As for the experimental part:
as §1

Experiment [5] has as its target T5, LRRC25(81-100) biotin peptide (human, not fully specified; N-terminal acetyl; C-terminal GGK-Biotin).
T5 peptide: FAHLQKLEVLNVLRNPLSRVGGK
As to the kind of experiment: peptide ELISA. How it is done: as §1

In experiment [6] the target is T6, LRRC25(111-130) biotin peptide (human, not fully specified; N-terminal acetyl; C-terminal GGK-Biotin; native Cys changed to Ser).
T6 peptide: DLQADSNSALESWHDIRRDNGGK
As to the kind of experiment: peptide ELISA. As for the experimental part: as §1

The target of experiment [7] is T7, LRRC25(126-145) biotin peptide (human, not fully specified; N-terminal acetyl; C-terminal GGK-Biotin; native Cys changed to Ser).
T7 peptide: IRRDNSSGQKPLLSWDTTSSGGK
As to the kind of experiment: peptide ELISA. As for the experimental part:
as §1

Experiment [8] concerns the target T8, LRRC25(141-159) biotin peptide (human, not fully specified; N-terminal acetyl; C-terminal GGK-Biotin; native Cys changed to Ser).
T8 peptide: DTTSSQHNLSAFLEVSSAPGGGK
The experiment in a line: peptide ELISA. As for the experimental part: as §1

In experiment [9] the target is T9, LRRC25(150-165) biotin peptide (human).
T9 peptide: Ac-SAFLEVSSAPGLASATGG-{Biotin′}
As to the kind of experiment: peptide ELISA. As for the experimental part:
as §1

The target in experiment [10] is T10, His-tagged human LRRC25 extracellular domain protein, human LRRC25-His (human, UniProt Q8N386 21-165).
T10 construct: The entry holds the extracellular domain, a GSG linker and the His tag; also called LRRC25(ECD)-HIS
T10 sequence (Q8N386 other isoform, or with tags, fused parts or gaps): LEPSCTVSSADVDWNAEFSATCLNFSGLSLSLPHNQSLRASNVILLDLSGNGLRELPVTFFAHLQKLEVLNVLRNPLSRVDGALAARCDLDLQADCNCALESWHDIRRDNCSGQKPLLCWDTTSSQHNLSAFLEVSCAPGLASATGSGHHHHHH
As to the kind of experiment: ELISA, plate-immobilized antigen. How it is done: To establish the relative binding strengths of anti-LRRC25 antibodies against human LRRC25, and their cross-reactivity with cynomolgus monkey LRRC25, antibody binding curve analyses were performed and EC50 values against plate-immobilized recombinant human and cyno LRRC25 proteins were determined.
(§2) A typical ELISA was performed by coating overnight in PBS, pH 7.4, at 4° C. in high binding microtiter wells with 1 ug/mL/100 ul per well of human LRRC25-His or cyno LRRC25-His. An anti-human LRRC25 antibody (2A3, LS Bio, LS-C174039-100) and anti-HIS-HRP (Miltenyi Biotec; 130-092-783) served as coating controls for the human and cyno LRRC25 proteins, respectively. […] Anti-LRRC25 antibodies were added (100 ul per well) at 500 nM and serially diluted 3-fold in assay buffer (1% skimmed milk in PBS, pH 7.4). The plate was incubated with gentle agitation for 1 h at room temperature. The plate was washed 3× and HRP-conjugated secondary antibody in assay buffer added [100 ul per well; goat anti-human IgG (Jackson Immunoresearch, cat #715-035-150)], and the plate was incubated as before. Antibody bound to plate-immobilized LRRC25(ECD)-HIS was determined at A450 nm using HRP substrate (3,3′,5,5′-tetramethylbenzidine (TMB); eBioscience; 00-4201-56); 100 μl/well).

The target of experiment [11] is T11, His-tagged cynomolgus monkey LRRC25 extracellular domain protein, cyno LRRC25-His (cynomolgus monkey).
T11 construct: The entry holds the extracellular domain, a GSG linker and the His tag
T11 sequence (chain, as listed by the source limits assumed): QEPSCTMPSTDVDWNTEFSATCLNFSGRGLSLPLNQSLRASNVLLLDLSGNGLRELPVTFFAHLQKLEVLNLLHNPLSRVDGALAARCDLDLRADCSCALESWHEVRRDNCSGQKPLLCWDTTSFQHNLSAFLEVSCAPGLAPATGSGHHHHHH
As to the kind of experiment: ELISA, plate-immobilized cyno LRRC25-His. How it is done: as §2

Experiment [12] addresses T12, biotinylated human LRRC25-His protein (human, UniProt Q8N386 21-165, biotinylated (sites not given)).
T12 construct: also called Biotin LRRC25-His; biotinylated LRRC25 protein
The experiment in a line: ELISA, 20 nM antibody, biotinylated antigen on streptavidin plate. As for the experimental part: as §1

For experiment [13], the target named is T13, LRRC25(96-115) biotin peptide (human, not fully specified; N-terminal acetyl; C-terminal GGK-Biotin; native Cys changed to Ser).
T13 construct: also called Biotin LRRC25 (96-115) peptide
T13 peptide: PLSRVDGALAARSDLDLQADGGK
The experiment is described as above. How it is done:
as §1

Experiment [14] concerns the target T13, LRRC25(96-115) biotin peptide. The experiment in a line: peptide ELISA. As for the experimental part: as §1

T12 sequence (Q8N386 other isoform, or with tags, fused parts or gaps): as the sequence (Q8N386 other isoform, or with tags, fused parts or gaps) above

B1: anti-LRRC25 chimeric antibody 1H09 (antibody, human IgG4, V domains shown)
VH: DVQLVESGGGLVKPGGSLKLSCAASGFTFSSYAMSWVRQTPEKRLEWVASISRGGNTYYPDSVKGRFTISRDNARNILYLQMSSLRSEDTAMYYCARGNYGNSPFAYWGQGALVTVSA
VL: DVVMTQTPASLAVSLGQRATISCRASESVDSYGNSFMHWYQQKPGQPPKLLIYLASNLESGVPARFSGSGSRTDFTLTIDPVEADDAATYYCQQNNEDPFTFGSGTKLEIKR
On to B1, for which the binding result in [1], in [2], in experiment [3], in [4], in experiment [5] and in experiment [6] was “no binding (tested: 20 nM)” each time. Moreover, the binding result in experiment [7] was “no binding (tested: 20 nM)”; in experiment [8], “no binding (tested: 20 nM)”; in [9], “no binding (tested: 20 nM)”; in [11], “no binding (tested: 500 nM)”. A half-maximal response in experiment [10] (EC50) required 1.5 nM. Besides, the “absorbance (A450)” value in [12] stood at 0.564 A450; in experiment [13], 0.631 A450.

B2: anti-LRRC25 chimeric antibody 1F01 (antibody, human IgG4, V domains shown)
VH: EVKLEESGGGLVKPGGSLKLSCAASGFTFSNYAMSWVRQTPEKRLEWVASISRGGNTYYPDSVKGRFTISRDNARNILYLQMSSLRSEDTATYFCTKGNYGSSPFAYWGQGTLVTVSA
VL: DIQMTQSPASLSASVGETVTITCRASENIYSYLAWYQQKQGKSPQLLVYNAKTLAEGVPSRFSGSGSGTQFSLKINSLQPEDFGSYYCQHHYGTPFTFGSGTKLEIKR
notes: also called ATCC PTA-126025
Consider B2, for which the binding result in [1], in experiment [2], in experiment [3], in [4], in experiment [5] and in experiment [6] was “no binding (tested: 20 nM)” each time. For the same molecule, the binding result in experiment [7] is recorded as “no binding (tested: 20 nM)”; in experiment [8], “no binding (tested: 20 nM)”; in [9], “no binding (tested: 20 nM)”; in experiment [11] it was “no binding (tested: 500 nM)”. Further, in experiment [10], the response was half-maximal at 8.3 nM (EC50). Besides, the results for the “absorbance (A450)” value in [12] and in [13] were 0.507 A450 and 0.782 A450, respectively.

B3: anti-LRRC25 chimeric antibody 1H04 (antibody, human IgG4, V domains shown)
VH: EVQLVESGGGLVKPGGSLKLSCAASGFTFSNSAMSWVRQTPEKRLEWVASISRGGKTYYPDSVKGRFTISRDNARNILYLQMSSLRSEDTAMYYCARGQELRLFAYWGQGTLVTVSA
VL: DIVMTQDAFSNPVTLGTSASISCRSSKSLLHSNGITYLYWYLQKPGQSPQLLIYQMSNLASGVPDRFSSSGSGTDFTLRISRVEAEDVGVYYCAQNLELPFTFGSGTKLEIKR
Regarding B3, the binding result in experiment [1], in experiment [2], in experiment [3], in [4], in experiment [5] and in experiment [6] was “no binding (tested: 20 nM)” throughout. For the same molecule, the binding result was “no binding (tested: 20 nM)” in [7], “no binding (tested: 20 nM)” in experiment [8], “no binding (tested: 20 nM)” in experiment [9] and “no binding (tested: 500 nM)” in experiment [11]. Further, in experiment [10], the EC50 (commonly the concentration needed to bring the measured effect to its halfway point) came to 0.44 nM. Moreover, the entries for the “absorbance (A450)” value in experiment [12] and in experiment [13] were 1.24 A450 and 2.58 A450, respectively.

B4: anti-LRRC25 chimeric antibody 1A03 (antibody, human IgG4, V domains shown)
VH: EVQLVESGGGLVKPGGSLKLSCAASGFTFSSSAVSWVRQTPEKRLEWVASISRGGNTYYPDSVKGRFTISRDNARNILYLQMSSLRSEDTAMYYCARGQELRLFAYWGQGTLVTVSA
VL: DIVMTQAAFSNPVTLGTSASISCRSSKSLLHSNGITYLYWYLQKPGQSPQLLIYQMSNLASGVPDRFSSSGSGTDFTLRISRVEAEDVGVYYCAQNLELPPTFGGGTKLEIKR
B4: the binding result in [1], in experiment [2], in experiment [3], in experiment [4], in [5] and in [6] was “no binding (tested: 20 nM)” throughout. The binding result in experiment [7] is “no binding (tested: 20 nM)”; in [8], “no binding (tested: 20 nM)”; in experiment [9] it was “no binding (tested: 20 nM)”; in experiment [11] it was “no binding (tested: 500 nM)”. The molecule further returned an EC50 in experiment [10] of 6.4 nM. The “absorbance (A450)” value was found to be 0.37 A450 in experiment [12] and 0.478 A450 in experiment [13].

B5: anti-LRRC25 chimeric antibody 2G02 (antibody, human IgG4, V domains shown)
VH: QVTLKESGPGILQPSQTLSLTCSFSGFSLSTSGMGVSWIRQPSGKGLEWLAHIYWDDDKRYNPSLKSRLTISKDTSSNQVFLKITSVDTADTATYYCARRHRDYDSRGHWYFGVWGAGTTVTVSS
VL: DVVMTQTPKSMSMSVGERVTLSCKASENVGTYVSWYQQKPEQSPKLLIYGASNRYTGVPDRFTGSGSATDFTLTISSVQAEDLADYHCGQSYNYPFTFGGGTKLEIKR
In the case of B5, the binding result in experiment [1], in experiment [2], in [3], in experiment [4], in experiment [5] and in experiment [14] was “no binding (tested: 20 nM)” throughout. The binding result in [6], in [7], in [8] and in [9] was “no binding (tested: 20 nM)” throughout. Further, the figures for the “absorbance (A450)” value in experiment [12] and in [13] were 2.6 A450 and 0.049 A450, respectively.

For the origin of these results see patent US20220363752A1 (VERSEAU THERAPEUTICS, published 2022).
